Assay results published in paper PMC10279719 (Nature Communications, 2023).
Non-standard residues stand in square brackets, D forms with d. pY = N[C@@H](Cc1ccc(OP(=O)(O)O)cc1)C(=O)O

T1: PEAK2^IDR1 (residues 802-1406), from insect cells, phosphorylated by Src (human, UniProt Q86YV5 802-1406, phosphorylated with Src kinase, sites not stated; phosphorylation of the tandem site 14-3-3 motif (RAASSP) found by proteomic analysis; biotin (EZ-Link NHS-PEG4-Biotin, 1:1 molar ratio))
T1 construct: human PEAK2 (SgK223, PRAG1), UniProt Q86YV5, residues 802-1406; also called PEAK2-IDR1 (+ Src phosphorylation); source: Sf21 insect cells, purified; phosphorylated in vitro with recombinant Src kinase domain
T1 sequence (looked up): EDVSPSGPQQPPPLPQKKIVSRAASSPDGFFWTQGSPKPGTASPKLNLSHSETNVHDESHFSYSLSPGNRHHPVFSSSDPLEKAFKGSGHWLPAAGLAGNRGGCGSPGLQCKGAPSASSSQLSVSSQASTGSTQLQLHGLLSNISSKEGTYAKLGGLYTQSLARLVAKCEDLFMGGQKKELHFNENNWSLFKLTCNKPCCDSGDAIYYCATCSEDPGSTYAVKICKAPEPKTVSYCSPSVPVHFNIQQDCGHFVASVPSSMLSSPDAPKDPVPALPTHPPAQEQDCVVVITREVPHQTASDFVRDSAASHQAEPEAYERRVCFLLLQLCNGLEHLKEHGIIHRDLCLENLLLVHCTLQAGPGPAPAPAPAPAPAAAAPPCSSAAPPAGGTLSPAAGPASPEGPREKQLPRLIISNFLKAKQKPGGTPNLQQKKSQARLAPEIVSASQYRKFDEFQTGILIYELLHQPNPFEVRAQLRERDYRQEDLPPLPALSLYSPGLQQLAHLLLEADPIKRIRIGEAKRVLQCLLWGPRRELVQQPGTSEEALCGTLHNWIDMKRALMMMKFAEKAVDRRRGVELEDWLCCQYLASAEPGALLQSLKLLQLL

T2: PEAK1^IDR1 (residues 1082-1746), from insect cells, phosphorylated by Src (human, UniProt Q9H792 1082-1746, phosphotyrosine at Y1107 (by Src in vitro, shown by MS/MS); other Src sites not stated; biotin (EZ-Link NHS-PEG4-Biotin, 1:1 molar ratio))
T2 construct: human PEAK1, UniProt Q9H792, residues 1082-1746; also called PEAK1-IDR1 (+ Src phosphorylation); source: Sf21 insect cells, purified; phosphorylated in vitro with recombinant Src kinase domain
T2 sequence (looked up): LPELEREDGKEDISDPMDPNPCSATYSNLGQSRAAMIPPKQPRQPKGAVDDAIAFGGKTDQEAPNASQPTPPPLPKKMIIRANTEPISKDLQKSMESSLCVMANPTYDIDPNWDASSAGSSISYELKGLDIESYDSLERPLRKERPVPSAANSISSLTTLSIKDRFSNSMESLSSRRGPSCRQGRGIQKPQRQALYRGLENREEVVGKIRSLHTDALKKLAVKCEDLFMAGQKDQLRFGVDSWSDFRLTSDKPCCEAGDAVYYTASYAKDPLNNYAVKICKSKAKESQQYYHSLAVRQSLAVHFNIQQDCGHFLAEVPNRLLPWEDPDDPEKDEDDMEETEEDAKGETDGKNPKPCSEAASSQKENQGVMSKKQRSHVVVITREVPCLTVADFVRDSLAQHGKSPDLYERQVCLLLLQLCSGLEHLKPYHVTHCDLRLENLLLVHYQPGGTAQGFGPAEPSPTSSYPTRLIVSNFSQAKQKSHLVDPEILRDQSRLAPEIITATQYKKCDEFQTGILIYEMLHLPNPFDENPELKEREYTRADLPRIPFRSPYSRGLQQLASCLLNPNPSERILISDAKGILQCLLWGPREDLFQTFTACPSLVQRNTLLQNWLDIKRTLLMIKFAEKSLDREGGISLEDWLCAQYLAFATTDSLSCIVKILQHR

B1: PEAK2 809-821 proline-rich motif peptide (Ac-QPPPLPQKKIVSR-NH2) (peptide)
peptide: Ac-QPPPLPQKKIVSR-NH2
notes: human PEAK2 (SgK223, PRAG1) residues 809-821; source: synthetic peptide, bought: Mimotopes (95% purity)
B2: PEAK1 1106-1121-pY1107 peptide (Ac-T(pY)SNLGQSRAAMIPPK-NH2) (peptide)
peptide: Ac-T[pY]SNLGQSRAAMIPPK-NH2
notes: human PEAK1 residues 1106-1121; source: synthetic peptide, bought: Mimotopes (95% purity)
B3: PEAK1 1150-1162 proline-rich motif peptide (Ac-PTPPPLPKKMIIR-NH2) (peptide)
peptide: Ac-PTPPPLPKKMIIR-NH2
notes: source: synthetic peptide, bought: Mimotopes (95% purity)
B4: PEAK SH2-pY consensus peptide (Ac-T(pY)SNLGQ-NH2) (peptide)
peptide: Ac-T[pY]SNLGQ-NH2
notes: also called consensus pY peptide; SH2-pY peptide; source: synthetic peptide, bought: Mimotopes (95% purity)
B5: full length CrkII, monomer (CrkII^FL monomer) (natural protein, human, UniProt P46108-1 1-304, looked up)
chain: MAGNFDSEERSSWYWGRLSRQEAVALLQGQRHGVFLVRDSSTSPGDYVLSVSENSRVSHYIINSSGPRPPVPPSPAQPPPGVSPSRLRIGDQEFDSLPALLEFYKIHYLDTTTLIEPVSRSRQGSGVILRQEEAEYVRALFDFNGNDEEDLPFKKGDILRIRDKPEEQWWNAEDSEGKRGMIPVPYVEKYRPASASVSALIGGNQEGSHPQPLGGPEPGPYAQPSVNTPLPNLQNGPIYARVIQKRVPNAYDKTALALEVGELVKVTKINVSGQWEGECNGKRGHFPFTHVRLLDQQNPDEDFS
modifications: biotin (EZ-Link NHS-PEG4-Biotin, 1:1 molar ratio) where it was immobilised (a1)
notes: full length human CrkII, printed as UniProt P46108-1, residues 1-330
B6: full length CrkII, dimer (CrkII^FL dimer) (natural protein, human, UniProt P46108-1 1-304, looked up)
chain: B5 chain
modifications: biotin (EZ-Link NHS-PEG4-Biotin, 1:1 molar ratio) where it was immobilised (a1)
notes: as for B5
B7: CrkII SH2 domain (CrkIISH2) (domain or fragment, human, UniProt P46108-1 6-120, looked up)
chain: DSEERSSWYWGRLSRQEAVALLQGQRHGVFLVRDSSTSPGDYVLSVSENSRVSHYIINSSGPRPPVPPSPAQPPPGVSPSRLRIGDQEFDSLPALLEFYKIHYLDTTTLIEPVSR
modifications: biotin (EZ-Link NHS-PEG4-Biotin) in the SPR experiment only
notes: CrkII, human, UniProt P46108-1, residues 6-120; Purifies as monomer with a proportion of dimer
B8: CrkII SH2 domain (CrkII^SH2, residues 6–120) (domain or fragment, human, UniProt P46108-1 6-120, looked up)
chain: B7 chain
modifications: biotin (EZ-Link NHS-PEG4-Biotin) where immobilised for SPR
notes: human CrkII residues 6-120, SH2 domain
B9: CrkII SH2-NSH3 construct lacking the CSH3 domain (CrkIIΔCSH3) (domain or fragment, human, UniProt P46108-1 1-228, looked up)
chain: MAGNFDSEERSSWYWGRLSRQEAVALLQGQRHGVFLVRDSSTSPGDYVLSVSENSRVSHYIINSSGPRPPVPPSPAQPPPGVSPSRLRIGDQEFDSLPALLEFYKIHYLDTTTLIEPVSRSRQGSGVILRQEEAEYVRALFDFNGNDEEDLPFKKGDILRIRDKPEEQWWNAEDSEGKRGMIPVPYVEKYRPASASVSALIGGNQEGSHPQPLGGPEPGPYAQPSVNT
notes: CrkII, human, residues 1-228
B10: CrkII^∆CSH3 (SH2-NSH3, residues 1–228) (domain or fragment, human, UniProt P46108-1 1-228, looked up)
chain: B9 chain
notes: human CrkII residues 1-228, lacking the CSH3 domain
B11: PEAK1^IDR1 (human PEAK1 residues 1082–1746) (domain or fragment, UniProt Q9H792 1082-1746, looked up)
chain: T2 sequence (looked up)
modifications: biotin (EZ-Link NHS-PEG4-Biotin) where immobilised for SPR; no phosphorylation observed at the tandem 14-3-3 motif
notes: human PEAK1 residues 1082-1746 (part of the IDR with Y1107 and the tandem site, SHED and PsK domains); the His tag is TEV-cleavable; also called PEAK1^IDR1 dimer; not shown: His tag, N-terminal, kept

How the values were obtained:
[1] = target: T3, CrkII N-terminal SH3 domain (CrkII^NSH3, residues 134-191) (human, UniProt P46108-1 134-191); test: SPR; CrkII NSH3 amine coupled to a CM5 chip, PRM peptides as analytes (100 µM-100 nM); Biacore S200, 20 °C, HBS-TP; steady state, 1:1 model; settings: both partners purified
T3 construct: human CrkII NSH3 domain, UniProt P46108-1, residues 134-191; Amine coupled to a CM5 chip in a2; analyte in a4; in the syringe in ITC

[2] = target: B6; test: SPR; biotinylated adapter proteins captured with a biotin CAPture kit, pY peptides as analytes; Biacore 8K+, 20 °C, HBS-TP (20 mM HEPES pH 7.4, 150 mM NaCl, 1 mM TCEP, 0.005% Tween-P20) with 2% DMSO; 1 M NaCl regeneration; steady state, 1:1 model; settings: both partners purified
[3] = target: B5; test: as above; settings: both partners purified
[4] = target: T4, CrkII SH2 domain (CrkII^SH2, residues 6-120) (human, UniProt P46108-1 6-120, biotin (EZ-Link NHS-PEG4-Biotin, 1:1 molar ratio) where it was immobilised (a1)); test: as above; settings: both partners purified
T4 construct: human CrkII SH2 domain, UniProt P46108-1, residues 6-120; The His tag is TEV-cleavable and was cleaved 'when required'

[5] = target: T1, PEAK2^IDR1 (residues 802-1406), from …; test: SPR; biotinylated PEAK proteins (with or without Src phosphorylation) captured with a biotin CAPture kit; Grb2 FL, Grb2 SH2, CrkII SH2, CrkII FL monomer or dimer as analytes; Biacore 8K+, 20 °C, HBS-TP with NaCl raised to 500 mM; 1 M NaCl regeneration; steady state; settings: both partners purified
[6] = target: T2, PEAK1^IDR1 (residues 1082-1746), from …; test: as above; settings: both partners purified
[7] = target: the molecule itself; test: SEC; S75 16/600 profile of the purified CrkII constructs, with SDS-PAGE of fractions
[8] = target: the molecule itself; test: SEC; single purified proteins on Superdex 200 (purification and re-runs), 20 mM HEPES pH 7.5–8.5, 150 mM NaCl, 1 mM TCEP; oligomeric state

For B1, the Kd [1] was 2400 nM.

B2 showed a Kd [2] of 3100 nM, a Kd [3] of 3500 nM and a Kd [4] of 3200 nM.

B3 showed a Kd [1] of 900 nM.

With B4 the Kd [2] was 12700 nM, the Kd [3] was 14500 nM and the Kd [4] was 8800 nM.

In the case of B5, the Kd [5] is reported as 2120 nM and the Kd [6] is reported as 1500 nM.

Binder B6 has a Kd [5] of 1380 nM and a Kd [6] of 1490 nM.

B7: binds [7].

B8: binds [8].

B9: binds [7].

B10: binds [8].

B11: binds [8].
